# B1: human ALDH9A1 (HsALDH9A1) (Homo sapiens) (protein)
# chain: MSTGTFVVSQPLNYRGGARVEPADASGTEKAFEPATGRVIATFTCSGEKEVNLAVQNAKAAFKIWSQKSGMERCRILLEAARIIREREDEIATMECINNGKSIFEARLDIDISWQCLEYYAGLAASMAGEHIQLPGGSFGYTRREPLGVCVGIGAWNYPFQIASWKSAPALACGNAMVFKPSPFTPVSALLLAEIYSEAGVPPGLFNVVQGGAATGQFLCQHPDVAKVSFTGSVPTGMKIMEMSAKGIKPVTLELGGKSPLIIFSDCDMNNAVKGALMANFLTQGQVCCNGTRVFVQKEILDKFTEEVVKQTQRIKIGDPLLEDTRMGPLINRPHLERVLGFVKVAKEQGAKVLCGGDIYVPEDPKLKDGYYMRPCVLTNCRDDMTCVKEEIFGPVMSILSFDTEAEVLERANDTTFGLAAGVFTRDIQRAHRVVAELQAGTCFINNYNVSPVELPFGGYKKSGFGRENGRVTIEYYSQLKTVCVEMGDVESAF
# notes: full-length 494-residue protein, His-tag kept (pCDFDuet, BamHI/XhoI), recombinant from E. coli; silent polymorphism at Ile110 codon
# Assays:
# Assay in all cases: purified protein
# Assay type in all cases: biochemical, Homo sapiens
# Conditions in all cases: 1 mM NAD+, 150 mM sodium pyrophosphate pH 7.5, 30 °C
# purified protein [1] = substrate: C[N+](C)(C)CCCC=O
# purified protein [2] = substrate: N=C(N)NCCCC=O
# purified protein [3] = substrate: NCCC=O
# purified protein [4] = substrate: NCCCC=O
# purified protein [5] = substrate: O=CCc1ccc(O)c(O)c1
protein,measurement,setting,value
B1,Km,purified protein [1],6 ± 1 µM
same,Vmax,purified protein [1],0.588 µmol/min/mg
same,Km,purified protein [2],21 ± 2 µM
same,Vmax,purified protein [2],0.114 µmol/min/mg
same,Km,purified protein [3],56 ± 7 µM
same,Vmax,purified protein [3],0.108 µmol/min/mg
same,Km,purified protein [4],67 ± 7 µM
same,Vmax,purified protein [4],0.108 µmol/min/mg
same,Km,purified protein [5],11 ± 1 µM
same,Vmax,purified protein [5],0.03 µmol/min/mg

# Source: publication PMC6487263, “Kinetic and structural analysis of human ALDH9A1” (Bioscience Reports, 2019)
